Experimental data taken from PMC3078926, “Epistatic Roles for Pseudomonas aeruginosa MutS and DinB (DNA Pol IV) in Coping with Reactive Oxygen Species-Induced DNA Damage” (PLoS ONE, 2011).

Legend:
purified protein [1] = substrate: Nc1ccn([C@H]2C[C@H](O)[C@@H](COP(=O)(O)OP(=O)(O)OP(=O)(O)O)O2)c(=O)n1; assay: purified protein; format: biochemical, Pseudomonas aeruginosa; conditions: opposite undamaged template dG, 13/20-mer primer/template DNA 100 nM, 200 nM DinB, 10 mM MgCl2, pH 7.5, 25 °C
purified protein [2] = substrate: Nc1ncnc2c1ncn2[C@H]1C[C@H](O)[C@@H](COP(=O)(O)OP(=O)(O)OP(=O)(O)O)O1; assay: purified protein; format: biochemical, Pseudomonas aeruginosa; conditions: opposite template 8-oxo-dG (lesion), 13/20 8-oxo-dG-mer DNA 100 nM, 200 nM DinB, 10 mM MgCl2, pH 7.5, 25 °C

B1: P. aeruginosa DinB (DNA Pol IV) (Pseudomonas aeruginosa PAO1) (protein)
chain: MRKIIHIDCDCFYAALEMRDDPSLRGKALAVGGSPDKRGVVATCSYEARAYGVRSAMAMRTALKLCPDLLVVRPRFDVYRAVSKQIHAIFRDYTDLIEPLSLDEAYLDVSASPHFAGSATRIAQDIRRRVAEELHITVSAGVAPNKFLAKIASDWRKPDGLFVITPEQVDGFVAELPVAKLHGVGKVTAERLARMGIRTCADLRQGSKLSLVREFGSFGERLWGLAHGIDERPVEVDSRRQSVSVECTFDRDLPDLAACLEELPTLLEELDGRLQRLDGSYRPDKPFVKLKFHDFTQTTVEQSGAGRDLESYRQLLGQAFARGNRPVRLIGVGVRLLDLQGAHEQLRLF
notes: C-terminally hexahistidine-tagged, recombinant, purified as described earlier
Work on B1 yielded a Km (purified protein [1]) of 5.4 ± 2.3 µM, a kcat (purified protein [1]) of 0.12 ± 0.01 s⁻¹ and a kcat/Km (purified protein [1]) of 22000 M⁻¹ s⁻¹. It also gave a Km (purified protein [2]) of 15 ± 5.0 µM, a kcat (purified protein [2]) of 0.066 ± 0.006 s⁻¹ and a kcat/Km (purified protein [2]) of 4000 M⁻¹ s⁻¹.
